{
  "source": "patent US9029508",
  "about": "(dated 2015)",
  "binders": {"B1": {"name": "DVD463 VEGF arm (antibody, V domains shown)", "VH": "EVQLVESGGGLVQPGGSLRLSCAASGFTINASWIHWVRQAPGKGLEWVGAIYPYSGYTNYADSVKGRFTISADTSKNTAYLQMNSLRAEDTAVYYCARWGHSTSPWAMDYWGQGTLVTVSS", "VL": "DIQMTQSPSSLSASVGDRVTITCRASQVIRRSLAWYQQKPGKAPKLLIYAASNLASGVPSRFSGSGSGTDFTLTISSLQPEDFATYYCQQSNTSPLTFGQGTKVEIKR"}, "B2": {"name": "DVD446 VEGF arm (antibody, V domains shown)", "VH": "B1 VH", "VL": "B1 VL"}, "B3": {"name": "DVD528 VEGF arm (antibody, V domains shown)", "VH": "B1 VH", "VL": "B1 VL"}, "B4": {"name": "DVD457 VEGF arm (antibody, V domains shown)", "VH": "B1 VH", "VL": "B1 VL"}, "B5": {"name": "DVD521 VEGF arm (antibody, V domains shown)", "VH": "B1 VH", "VL": "B1 VL"}, "B6": {"name": "DVD515 VEGF arm (antibody, V domains shown)", "VH": "B1 VH", "VL": "B1 VL"}, "B7": {"name": "DVD468 VEGF arm (antibody, V domains shown)", "VH": "B1 VH", "VL": "B1 VL"}, "B8": {"name": "DVD497 VEGF arm (antibody, V domains shown)", "VH": "B1 VH", "VL": "B1 VL"}, "B9": {"name": "DVD485 VEGF arm (antibody, V domains shown)", "VH": "B1 VH", "VL": "B1 VL"}, "B10": {"name": "DVD451 VEGF arm (antibody, V domains shown)", "VH": "B1 VH", "VL": "B1 VL"}, "B11": {"name": "DVD498 VEGF arm (antibody, V domains shown)", "VH": "B1 VH", "VL": "B1 VL"}, "B12": {"name": "DVD491 VEGF arm (antibody, V domains shown)", "VH": "B1 VH", "VL": "B1 VL"}, "B13": {"name": "DVD500 DLL4 arm (antibody, V domains shown)", "VH": "EVQLQQSGPELVKPGASVKMSCKASGYTFTSYVINWVKQKPGQGLEWIGLINPYNDGTKYNEKFKVKATLTSDKSSSTAYMELSSLTSEDSAVYYCASYYYGSRYYFDYWGQGTTLTVSS", "VL": "DIQMTQSSSYLSVSLGGRVTITCKASDHINNWLAWYQQKPGNAPRLLISGATSLETGVPSRFSGSGSGKDYTLSITSLQTEDVATYYCQQYWSIPLTFGAGTKLELKR", "modifications": "DVD-Ig inner"}, "B14": {"name": "DVD448 DLL4 arm (antibody, V domains shown)", "VH": "QVQLVQSGAEVKKPGASVKISCKASGYSFTAYYIHWVKQAPGQGLEWIGYISSYNGATNYNQKFKGRVTFTTDTSTSTAYMELRSLRSDDTAVYYCARDYDYDVGMDYWGQGTLVTVSS", "VL": "DIVMTQSPDSLAVSLGERATISCRASESVDNYGISFMKWFQQKPGQPPKLLIYAASNQGSGVPDRFSGSGSGTDFTLTISSLQAEDVAVYYCQQSKEVPWTFGGGTKVEIKR", "modifications": "DVD-Ig inner"}, "B15": {"name": "DVD482 DLL4 arm (antibody)", "chain 1": "EVQLVESGGGLVQPGGSLRLSCAASGFTFTDNWISWVRQAPGKGLEWVGYISPNSGFTYYADSVKGRFTISADTSKNTAYLQMNSLRAEDTAVYYCARDNFGGYFDYWGQGTLVTVSS", "chain 2": "DIQMTQSPSSLSASVGDRVTITCRASQDVSTAVAWYQQKPGKAPKLLIYSASFLYSGVPSRFSGSGSGTDFTLTISSLQPEDFATTYYCQQSYTGTVTFGQGTKVEIKR", "modifications": "DVD-Ig inner"}},
  "data": [
    {"molecular_target": "T1, VEGF (human, UniProt P15692)", "T1 chain": "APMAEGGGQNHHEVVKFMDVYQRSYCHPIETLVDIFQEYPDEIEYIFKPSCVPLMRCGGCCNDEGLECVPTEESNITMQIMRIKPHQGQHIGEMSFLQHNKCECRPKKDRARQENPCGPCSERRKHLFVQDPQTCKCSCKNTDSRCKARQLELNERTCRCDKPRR", "test": "ELISA", "units": {"EC50": "nM"}, "values": [
      {"binder": "B1", "EC50": 1730},
      {"binder": "B2", "EC50": 14.4},
      {"binder": "B3", "EC50": 27.7},
      {"binder": "B4", "EC50": 1480},
      {"binder": "B5", "EC50": 655},
      {"binder": "B6", "EC50": 3020},
      {"binder": "B7", "EC50": 25.6},
      {"binder": "B8", "EC50": 858},
      {"binder": "B9", "EC50": 121},
      {"binder": "B10", "EC50": 2400},
      {"binder": "B11", "EC50": 30.6},
      {"binder": "B12", "EC50": 1250}
    ]},
    {"molecular_target": "DLL4 (human, UniProt Q9NR61)", "sequence (Q9NR61 27-524)": "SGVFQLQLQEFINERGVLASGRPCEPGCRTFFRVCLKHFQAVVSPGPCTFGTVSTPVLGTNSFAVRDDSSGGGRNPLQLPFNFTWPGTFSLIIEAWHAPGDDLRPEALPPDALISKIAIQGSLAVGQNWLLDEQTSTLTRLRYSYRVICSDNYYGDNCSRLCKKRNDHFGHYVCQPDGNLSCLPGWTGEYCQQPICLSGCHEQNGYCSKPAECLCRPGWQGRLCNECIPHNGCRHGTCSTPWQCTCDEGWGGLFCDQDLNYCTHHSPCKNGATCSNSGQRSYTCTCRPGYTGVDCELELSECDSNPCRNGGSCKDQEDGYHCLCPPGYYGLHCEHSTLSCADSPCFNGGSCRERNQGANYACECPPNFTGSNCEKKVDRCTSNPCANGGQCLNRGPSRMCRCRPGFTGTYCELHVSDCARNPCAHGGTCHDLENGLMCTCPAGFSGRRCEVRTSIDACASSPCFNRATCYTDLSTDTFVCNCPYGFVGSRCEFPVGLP", "test": "ELISA", "units": {"EC50": "nM"}, "values": [
      {"binder": "B13", "EC50": 0.57},
      {"binder": "B14", "EC50": 0.41},
      {"binder": "B15", "EC50": 0.36}
    ]}
  ]
}
